# From publication PMC4029989, “Selection of a Novel DNA Aptamer for Assay of Intracellular Interferon-Gamma”
# B1: A2 (ssDNA)
# DNA: TGCCCGTGTCCCGAGGAGGTGCCCTATTTTGCTTGATTATCTCTAAGGGATTTGGGCGG
# B2: B1-4 (ssDNA)
# DNA: CCGCCCAAATCCCTAAGAGAAGACTGTAATGACATCAAACCAGACACACTACACACGCA
# Experiments:
# [1] = target: Interferon-gamma, intracellular (Homo sapiens, UniProt P01579 24-161); assay: flow cytometry of fixed permeabilized cells; 0.05 pM aptamer; no correlation with stimulated cells; PBS binding buffer (SELEX with 0.1 mg/mL salmon sperm DNA and 1 mg/mL BSA, 37 °C); Kd assay on beads in binding buffer, room temperature, 30 min; pH not stated; conditions: protein: native; chain copies: 2
# Sequence of Interferon-gamma, intracellular (P01579 24-161): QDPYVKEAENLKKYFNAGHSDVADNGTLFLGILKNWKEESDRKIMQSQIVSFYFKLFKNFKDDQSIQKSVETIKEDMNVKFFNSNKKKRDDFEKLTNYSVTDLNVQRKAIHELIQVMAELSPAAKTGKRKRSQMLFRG
# Interferon-gamma (IFN-γ) [2] = target: T1, Interferon-gamma (IFN-γ) (Homo sapiens, UniProt P01579 24-161); assay: flow cytometry bead binding; binding buffer (PBS), room temperature, blank-bead signal subtracted; PBS binding buffer (SELEX with 0.1 mg/mL salmon sperm DNA and 1 mg/mL BSA, 37 °C); Kd assay on beads in binding buffer, room temperature, 30 min; pH not stated; conditions: protein: commercial; chain copies: 2; label: FITC
# T1 sequence (P01579 24-161): as above
# [3] = target: Bovine serum albumin (BSA) (Bos taurus, UniProt P02769 25-607); assay: flow cytometry bead binding; bound albumin to a large degree; PBS binding buffer (SELEX with 0.1 mg/mL salmon sperm DNA and 1 mg/mL BSA, 37 °C); Kd assay on beads in binding buffer, room temperature, 30 min; pH not stated; conditions: protein: commercial; label: FITC
# Sequence of Bovine serum albumin (BSA) (P02769 25-607): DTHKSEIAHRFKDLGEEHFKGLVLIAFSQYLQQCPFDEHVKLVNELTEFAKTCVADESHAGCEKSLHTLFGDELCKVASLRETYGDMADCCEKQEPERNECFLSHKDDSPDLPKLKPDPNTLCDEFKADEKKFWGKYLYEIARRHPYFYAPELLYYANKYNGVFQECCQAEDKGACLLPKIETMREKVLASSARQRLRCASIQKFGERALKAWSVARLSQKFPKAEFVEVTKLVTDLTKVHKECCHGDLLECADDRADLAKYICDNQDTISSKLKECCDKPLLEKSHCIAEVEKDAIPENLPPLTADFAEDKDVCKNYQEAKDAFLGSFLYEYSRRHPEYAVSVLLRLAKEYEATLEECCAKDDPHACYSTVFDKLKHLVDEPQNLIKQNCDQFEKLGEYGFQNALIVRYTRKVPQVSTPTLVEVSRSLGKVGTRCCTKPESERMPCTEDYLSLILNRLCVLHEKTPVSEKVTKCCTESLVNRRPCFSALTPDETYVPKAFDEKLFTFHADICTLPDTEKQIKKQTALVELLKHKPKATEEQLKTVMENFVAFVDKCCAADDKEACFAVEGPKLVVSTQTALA
# Interferon-gamma (IFN-γ) [4] = target: T1, Interferon-gamma (IFN-γ); assay: flow cytometry bead binding; PBS binding buffer (SELEX with 0.1 mg/mL salmon sperm DNA and 1 mg/mL BSA, 37 °C); Kd assay on beads in binding buffer, room temperature, 30 min; pH not stated; conditions: protein: commercial; chain copies: 2; label: FITC
binder,measurement,setting,value
B1,binding result,[1],no binding
B2,Kd,Interferon-gamma (IFN-γ) [2],0.0745 µM
GGGGTTGGTTGTGTTGGGTGTTGTGT (ssDNA) [T2],binding result,[3],binds
same,binding result,Interferon-gamma (IFN-γ) [4],binds
